Experimental data: paper PMC3682517, “Engineering A-kinase Anchoring Protein (AKAP)-selective Regulatory Subunits of Protein Kinase A (PKA) through Structure-based Phage Selection*^([image sbox.jpg])” (The Journal of Biological Chemistry, 2013)

Assays:
[1] = target: T1, wild-type RII(1–45) D/D domain fragment (UniProt P13861 1-45, biotinylated when used as AlphaScreen tracer (site not stated)); assay: AlphaScreen or HTRF; competition binding: biotinylated R subunit D/D domain 0.3 nM (tracer), GST-AKAP RII-binding region 3 nM (target), increasing untagged R subunit D/D domain; IC50 approximates Kd; 20 mM HEPES pH 7.2, 100 mM NaCl, 0.1% BSA; 1 h at 4 °C; one-site competition fit; settings: both partners purified
T1 construct: PKA regulatory subunit RIIα, residues 1-45, docking and dimerization (D/D) domain; His6 tag is PreScission-cleavable; also called WT RII; RII D/D domain; not shown: V5, C-terminal, kept

[2] = target: T2, R_(Select)AKAP18(1–45) D/D domain fragment (UniProt P13861 2-46, Val-3 in R_(Select)AKAP18 | Leu-5 in R_(Select)AKAP18 | Asp-10 in each …, biotinylated when used as AlphaScreen tracer (site not stated)); assay: as above; settings: both partners purified
T2 construct: PKA regulatory subunit RIIα, residues 1-45 (D/D domain), variant selected by phage display against AKAP18; changes at positions 3, 5, 10 and 14; not shown: V5, C-terminal, kept

| Binder | Kd [1] | Kd [2] |
| --- | --- | --- |
| GST-AKAP2 anchoring helix fragment (domain or fragment) GDSPLVDDPLEYQAGLLVQNAIQQAIAEQVDKAVSKTSRDGAEQQGPEATVEEAEAAAFG | 12.5 ± 1.8 nM |  |
| GST-AKAP18 anchoring helix fragment (domain or fragment) NGGEPDDAELVRLSKRLVENAVLKAVQQYLEETQNKNKPGEGSSVKTEAADQNGNDNENNRK | 16.3 nM | 162 nM |
